Experimental data taken from patent publication US7026282B1, “Peptide antagonists of the human urokinase receptor and method for selecting them” (Cancerforskningsfonden AF 1989 (Fonden Til Fremme AF …, priority 1998, dated 2006).
“Also recorded” adds a separate entry of the source. Starred links: 1 amine or outer side, 2 acyl side, 3 side chain; linkers in the order of their positions; H or OH if unused. Non-standard residues stand in square brackets, D forms with d. No end group written: not given here. DMB = N-(2,3-dimethoxybenzyl)glycine, COc1cccc(CN(CC(=O)[*:2])[*:1])c1OC; Gly(N(CH2)2(3-indolyl)) = O=C(O)CNCCc1c[nH]c2ccccc12; 1Nal = N[C@@H](Cc1cccc2ccccc12)C(=O)O; 2Nal = N[C@@H](Cc1ccc2ccccc2c1)C(=O)O; AMN = N-(methylnaphthalyl)glycine; Cha = N[C@@H](CC1CCCCC1)C(=O)O; Nme = COCCNCC(=O)O; βAla = NCCC(=O)O

Legend:
[1] = biological target: T1, neuramimidase-treated human suPAR (soluble recombinant uPAR) (Homo sapiens, UniProt Q03405); test: Biacore Binding Assay (surface plasmon resonance), ligand binding to immobilised suPAR; conditions: for kdiss (dissociation rate constant, off-rate): Biacore, 5° C., immobilised suPAR; for Relative kdiss: relative to the Growth Factor Domain of uPA (GFD = 1.0); for dissociation constant compared with other peptides: peptomer analogues; for human uPAR binding after introduction of spacing residues: spacer between D-arginine and L-tyrosine
T1 construct: A soluble recombinant variant of human uPAR (suPAR) was expressed in Chinese hamster ovary (dhfr) cells; made in house; host or cells: Chinese hamster ovary (dhfr) cells
T1 sequence (Q03405 23-305 limits assumed): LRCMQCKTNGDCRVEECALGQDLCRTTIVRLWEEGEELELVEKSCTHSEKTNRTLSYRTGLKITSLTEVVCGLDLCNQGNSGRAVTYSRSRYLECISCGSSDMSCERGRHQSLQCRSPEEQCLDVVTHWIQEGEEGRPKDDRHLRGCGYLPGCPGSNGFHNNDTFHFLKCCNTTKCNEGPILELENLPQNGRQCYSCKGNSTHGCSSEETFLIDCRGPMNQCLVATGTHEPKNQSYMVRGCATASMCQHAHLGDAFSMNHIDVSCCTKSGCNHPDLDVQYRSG
Experimental: Association rate constants (kass), dissociation rate constants (kdiss) and equilibrium binding constants (kd) for various synthetic peptides and receptor binding derivatives of human uPA were determined by surface plasmon resonance (R. Karlsson et al. (1991) J. Immunol. Meths. 145:229–240) using a BIAcore2000™ instrument (Pharmacia Biosensor, Uppsala, Sweden). Due to the low isoelectric point of uPAR (pI≈4.5) terminal sialic acid residues were removed from its N-linked carbohydrates to facilitate chemical immobilisation on the sensor chip. This was accomplished by incubating purified suPAR (1 mg/ml in 50 mM phosphate, 150 mM NaCl, pH 7.4) with 5 μg/ml neuramimidase for 4 hours at 37° C. […] Coupling of the neuramimidase-treated suPAR to a BIAcore sensor chip was achieved by injection of 20 μg/ml suPAR in 10 mM sodium acetate pH 5.0 for 6 minutes at a flow rate of […] per minute using a carboxymethylated dextran matrix (CM5 sensor chip) preactivated with N-hydroxysuccinimide/N-ethyl-N′-[3-([…])propyl]carbodiimide according to the manufacturer's recommendations. Approximately 1,500–2,000 resonance units (RU) were immobilised by this procedure (corresponding to 1–2 ng suPAR/mrn^2).
Sensorgrams (RU versus time) were recorded (FIG. 2) at a flow rate of 10 μl per min at 5° C. using several different concentrations of the ligand (synthetic peptides, uPA, the amino-terminal fragment (ATF) of uPA, or the growth factor domain (GFD) of uPA) in the range of 10 to 1000 nM in running buffer (10 mM HEPES, 150 mM NaCl, 3 mM EDTA (pH 7.4) including 0.005% surfactant P-20). Stock solutions of peptides from combinatorial chemistry were made in DMSO (10 mg peptide/ml DMSO). The sensor chip was regenerated at the end of each run by injection of 0.1 M acetic acid, 0.5 M NaCl. Data obtained from parallel mock coupled flow cells (subjected to the coupling procedure in the presence of buffer only) served as blank sensorgrams for subtraction of changes in bulk refractive index. The sensorgrams obtained were analysed by non-linear least squares fitting using BIAevaluation 2.0 software (Pharmacia Biosensor, Uppsala, Sweden) assuming single-site association and dissociation models.
Purified human suPAR (1 mg/ml in 50 mM phosphate, 150 mM NaCl, pH 7.4) was incubated with 5 μg/ml neuramimidase for 4 hours at 37° C.
In order to couple the neuramimidase-treated suPAR to a BIAcore sensor chip, 20 μg/ml suPAR in 10 mM sodium acetate (pH 5.0) was injected for 6 minutes at a flow rate of 5 μl per minute using a carboxymethylated dextran matrix (CM5 sensor chip), thereby immobilising approximately 1,500–2,000 resonance units (RU), which correspond to 1–2 ng suPAR/mm^2. The CM5 sensor chip was preactivated with N-hydroxysuccinimide/N-ethyl-N′-[3-([…])propyl]carbodiimide in accordance with the manufacturer's recommendations.
Surface plasmon resonance sensorgrams (RU versus time) were recorded at a flow rate of 10 μl per min at 5° C. using several different concentrations of the ligand (i.e. the relevant peptide or GFD) in the range from 10 to 1000 nM in running buffer (10 mM HEPES, 150 mM NaCl, 3 mM EDTA (pH 7.4) including 0.005% surfactant P-20).
The sensor chip was regenerated at the end of each run by injection of 0.1 M acetic acid, 0.5 M NaCl.
Data from parallel mock coupled flow cells (subjected to the coupling procedure in the presence of buffer only) served as blank sensorgrams for subtraction of changes in bulk refractive index.
The obtained sensorgrams were analysed by non-linear least squares fitting using BIAevaluation 2.0 software (Pharmacia Biosensor, Uppsala, Sweden) assuming single-site ssociation and dissociation models.

[2] = biological target: soluble recombinant variant of human uPAR (suPAR) (human) (UniProt Q03405); test: SPR (Biacore), ligand over immobilised neuramimidase-treated human suPAR
Sequence of soluble recombinant variant of human uPAR (suPAR) (human) (Q03405 23-299, change not shown): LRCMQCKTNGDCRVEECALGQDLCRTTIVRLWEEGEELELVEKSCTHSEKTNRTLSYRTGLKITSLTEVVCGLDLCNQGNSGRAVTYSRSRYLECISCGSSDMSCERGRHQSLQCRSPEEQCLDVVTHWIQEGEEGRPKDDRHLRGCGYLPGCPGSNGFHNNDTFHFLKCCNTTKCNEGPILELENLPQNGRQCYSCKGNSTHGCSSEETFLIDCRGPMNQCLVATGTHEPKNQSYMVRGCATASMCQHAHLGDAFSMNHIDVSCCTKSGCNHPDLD

kdiss (dissociation rate constant, off-rate) [1]	Relative kdiss [1]	Relative kdiss (relative to GFD) [2]	koff [2]	human uPAR binding after introduction of spacing residues [1]	Molecule	dissociation constant compared with other peptides [1]
no binding	>>100				DNFsrYLWS (DNF[dS][dR]YLWS) [AE113]	
0.00054 s⁻¹	3.9				D-Cha-F-s-r-DMB-f-DMB-l (D[Cha]F[dS][dR][DMB][dF][DMB][dL]) [AE129, peptide-peptoid hybrid (peptomer)]	
		4	0.00056 s⁻¹		AE100 (peptide)	
0.00056 s⁻¹	4.0				D-Cha-F-s-r-Y-L-Nal-h (D[Cha]F[dS][dR]YLX[dH]; not fully specified (residue 8); printed as D-Cha-F-s-r-Y-L-Nal-h) [AE131]	
0.00205 s⁻¹	14.6				dChaFsrYL^2nAS ([dD][Cha]F[dS][dR]YL[2Nal]S) [AE109]	
0.00028 s⁻¹	2.0				DChaFsRYLWS (DXFSRYLWS; D-residues; non-natural residues; cyclised or stapled) [AE110]	
no binding	>>100				D-Cha-F-s-r-MEA-DMB-f-AMN (D[Cha]F[dS][dR][Nme][DMB][dF][AMN]) [AE128, peptide-peptoid hybrid (peptomer)]	same order of magnitude as the best of the peptides
0.00053 s⁻¹	3.8				D-Cha-F-s-r-Cha-L-W-l (D[Cha]F[dS][dR][Cha]LW[dL]) [AE132]	
0.00074 s⁻¹	5.3				D-Cha-F-s-r-DMLB-f-Bzl-MEA [AE125, peptide-peptoid hybrid (peptomer)]	same order of magnitude as the best of the peptides
0.00051 s⁻¹	3.6				D-Cha-F-s-r-L-L-W-h (D[Cha]F[dS][dR]LLW[dH]) [AE130]	
		0.86	0.00012 s⁻¹		amino-terminal-fragment (ATF) of human uPA (from UniProt P00749 21-155) (ligand)	
0.00105 s⁻¹	7.5				LNFsQYLWS (LNF[dS]QYLWS) [AE111]	
0.00048 s⁻¹	3.4				tChaFsrYLWS ([dT][Cha]F[dS][dR]YLWS) [AE108]	
0.00263 s⁻¹	18.7				DChaFSrYLWS (DXFSRYLWS; D-residues; non-natural residues; cyclised or stapled) [AE106]	
0.0129 s⁻¹	92.1				SLNFSQYLWS (AE68) [reference compound]	
		2	0.00028 s⁻¹		DXFSRYLWS (beta-cyclohexyl-L-alanine (Cha) at 2; D-Ser at 4) [AE110]	
		92.1	0.0129 s⁻¹		SLNFSQYLWS [AE68]	
		63.1	0.00884 s⁻¹		DXFSRYLWS (D-Asp at 1; beta-cyclohexyl-L-alanine (Cha) at 2; D-Arg at 5) [AE107]	
		11.9	0.00167 s⁻¹		[dE][Cha]F[dS]YYLWS [AE115]	
		> 100			D[Cha]F[dS][dR]GYLWS (not fully specified) [AE116]	

Continued, molecule first:

Molecule	kdiss (dissociation rate constant, off-rate) [1]	Relative kdiss [1]	Relative kdiss (relative to GFD) [2]	koff [2]	human uPAR binding after introduction of spacing residues [1]	dissociation constant compared with other peptides [1]
dChaFSrYLWS (DXFSRYLWS; D-residues; non-natural residues; cyclised or stapled) [AE107]	0.00884 s⁻¹	63.1				
DchaFsrYL^1nAS [AE114]	0.00059 s⁻¹	4.2				
DFFsrYLWS (DFF[dS][dR]YLWS) [AE112]	0.00181 s⁻¹	12.9				
ATF: amino-terminal-fragment (ATF) of human uPA	0.00012 s⁻¹	0.86				
eChaFsyYLWS ([dE][Cha]F[dS][dY]YLWS) [AE100]	0.00056 s⁻¹	4.0				
arFhhYLWS ([dA][dR]F[dH][dH]YLWS) [AE104]	no binding	>>100				
SLChaFsQYLWS (SL[Cha]F[dS]QYLWS)	0.00349 s⁻¹	24.9				
DChaFsrβAYLWS (D[Cha]F[dS][dR][βAla]YLWS) [AE117]	no binding	>>100			abolished the binding	
eChaFsYYLWS ([dE][Cha]F[dS]YYLWS) [AE115]	0.00167 s⁻¹	11.9				
D-Cha-F-s-r-DMB-f-AMN-MEA (D[Cha]F[dS][dR][DMB][dF][AMN][Nme]) [AE126, peptide-peptoid hybrid (peptomer)]	0.00037 s⁻¹	2.6				same order of magnitude as the best of the peptides; also recorded: approximating those of AE105 and AE110
DChaFsrGYLWS (D[Cha]F[dS][dR]GYLWS) [AE116]	no binding	>>100			abolished the binding	
D-Cha-F-s-r-DMB-f-TRA-MEA (D[Cha]F[dS][dR][DMB][dF][Gly(N(CH2)2(3-indolyl))][Nme]) [AE124, peptide-peptoid hybrid (peptomer)]	0.00561 s⁻¹	40.0				same order of magnitude as the best of the peptides
dChaFsrYLWs (DXFSRYLWS; not fully specified; D-residues; non-natural residues; cyclised or stapled)	0.00068 s⁻¹	4.9				
D[Cha]F[dS][dR][βAla]YLWS (not fully specified; printed as DChaFsrβAYLWS) [AE117]			> 100			
DXFSRYLWS (beta-cyclohexyl-L-alanine (Cha) at 2; D-Arg at 5) [AE106]			18.7	0.00263 s⁻¹		
D[Cha]F[dS][dR]YL[1Nal]S [AE114]			4.2	0.00059 s⁻¹		
SL[Cha]F[dS]QYLWS [Lcha]			24.9	0.00349 s⁻¹		
LNF[dS]QYLWS [AE111]			7.5	0.00105 s⁻¹		
